Data set [1] concerns the target T1, hITIP0033-G1T4k.one//VHn-G1T4h.one.H435R.
T1 chain 1: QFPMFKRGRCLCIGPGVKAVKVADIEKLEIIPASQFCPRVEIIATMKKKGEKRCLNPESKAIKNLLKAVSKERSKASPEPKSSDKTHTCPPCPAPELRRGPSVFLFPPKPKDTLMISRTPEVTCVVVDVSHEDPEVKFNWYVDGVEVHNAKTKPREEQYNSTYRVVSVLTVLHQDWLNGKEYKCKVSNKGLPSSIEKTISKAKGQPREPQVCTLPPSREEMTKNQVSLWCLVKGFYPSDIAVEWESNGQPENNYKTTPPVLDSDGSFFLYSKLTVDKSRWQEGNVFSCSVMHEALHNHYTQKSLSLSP
T1 chain 2: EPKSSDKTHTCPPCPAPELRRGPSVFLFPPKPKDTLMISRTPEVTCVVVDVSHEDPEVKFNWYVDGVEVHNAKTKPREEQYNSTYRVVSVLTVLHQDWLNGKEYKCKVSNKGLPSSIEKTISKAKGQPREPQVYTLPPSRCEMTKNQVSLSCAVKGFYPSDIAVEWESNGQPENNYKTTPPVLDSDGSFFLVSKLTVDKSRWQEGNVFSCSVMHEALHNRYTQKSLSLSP

The target in data set [2] is T2, hITIP-G1T4k.one//VHn-G1T4h.one.H435R.
T2 chain 1: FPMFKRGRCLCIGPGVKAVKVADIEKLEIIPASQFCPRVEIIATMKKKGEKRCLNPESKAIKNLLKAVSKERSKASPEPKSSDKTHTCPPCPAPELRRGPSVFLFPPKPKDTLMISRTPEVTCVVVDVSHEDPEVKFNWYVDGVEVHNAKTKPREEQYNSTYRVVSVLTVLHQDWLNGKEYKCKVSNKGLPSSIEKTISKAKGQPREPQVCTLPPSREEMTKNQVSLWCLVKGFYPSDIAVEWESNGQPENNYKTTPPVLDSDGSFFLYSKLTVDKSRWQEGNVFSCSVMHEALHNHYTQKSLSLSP
T2 chain 2: T1 chain 2

For data set [3], the target named is T3, hCXCL11.0031-G1T4k.one//VHn-G1T4h.one.H435R.
T3 chain 1: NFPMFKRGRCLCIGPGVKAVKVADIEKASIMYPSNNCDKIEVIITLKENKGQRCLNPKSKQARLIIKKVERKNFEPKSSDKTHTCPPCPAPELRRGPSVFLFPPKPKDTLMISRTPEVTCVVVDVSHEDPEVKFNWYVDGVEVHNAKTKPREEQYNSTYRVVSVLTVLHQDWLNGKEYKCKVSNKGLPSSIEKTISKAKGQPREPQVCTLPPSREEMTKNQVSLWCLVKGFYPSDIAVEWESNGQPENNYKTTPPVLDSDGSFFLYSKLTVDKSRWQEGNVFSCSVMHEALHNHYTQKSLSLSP
T3 chain 2: T1 chain 2

For data set [4], the target named is T4, hITIP0030-G1T4k.one//VHn-G1T4h.one.H435R.
T4 chain 1: T1 chain 1 with Q1M
T4 chain 2: T1 chain 2

Data set [5] concerns the target T5, hCXCL11.0021-G1T4k.one//VHn-G1T4h.one.H435R.
T5 chain 1: T3 chain 1 with N1A
T5 chain 2: T1 chain 2

Data set [6] deals with T6, hCXCL11.0023-G1T4k.one//VHn-G1T4h.one.H435R.
T6 chain 1: T3 chain 1 with N1E
T6 chain 2: T1 chain 2

In data set [7] the target is T7, hITIP0031-G1T4k.one//VHn-G1T4h.one.H435R.
T7 chain 1: T1 chain 1 with Q1N
T7 chain 2: T1 chain 2

Substitutions are numbered along the chain they refer to.

B1: human dipeptidyl peptidase IV (human DPPIV, hDPPIV) (Biolegend, 764102) (protein)
chain: NKGTDDATADSRKTYTLTDYLKNTYRLKLYSLRWISDHEYLYKQENNILVFNAEYGNSSVFLENSTFDEFGHSINDYSISPDGQFILLEYNYVKQWRHSYTASYDIYDLNKRQLITEERIPNNTQWVTWSPVGHKLAYVWNNDIYVKIEPNLPSYRITWTGKEDIIYNGITDWVYEEEVFSAYSALWWSPNGTFLAYAQFNDTEVPLIEYSFYSDESLQYPKTVRVPYPKAGAVNPTVKFFVVNTDSLSSVTNATSIQITAPASMLIGDHYLCDVTWATQERISLQWLRRIQNYSVMDICDYDESSGRWNCLVARQHIEMSTTGWVGRFRPSEPHFTLDGNSFYKIISNEEGYRHICYFQIDKKDCTFITKGTWEVIGIEALTSDYLYYISNEYKGMPGGRNLYKIQLSDYTKVTCLSCELNPERCQYYSVSFSKEAKYYQLRCSGPGLPLYTLHSSVNDKGLRVLEDNSALDKMLQNVQMPSKKLDFIILNETKFWYQMILPPHFDKSKKYPLLLDVYAGPCSQKADTVFRLNWATYLASTENIIVASFDGRGSGYQGDKIMHAINRRLGTFEVEDQIEAARQFSKMGFVDNKRIAIWGWSYGGYVTSMVLGSGSGVFKCGIAVAPVSRWEYYDSVYTERYMGLPTPEDNLDHYRNSTVMSRAENFKQVEYLLIHGTADDNVHFQQSAQISKALVDVGVDFQAMWYTDEDHGIASSTAHQHIYTHMSHFIKQCFSLP
Take B1: the “cleavage by hDPPIV (LC/MS mass)” value in data set [1] was “showed no mass change suggestive of peptide bond cleavage by hDPPIV treatment”; in data set [2], “DPPIV treatment reduced each of the masses”; in data set [3], “showed no mass change suggestive of peptide bond cleavage by hDPPIV treatment”; in data set [4], “showed no mass change suggestive of peptide bond cleavage by hDPPIV treatment”; in data set [5], “showed no mass change suggestive of peptide bond cleavage by hDPPIV treatment”; in data set [6], “showed no mass change suggestive of peptide bond cleavage by hDPPIV treatment”. Also, in data set [7], the “cleavage by hDPPIV (LC/MS mass)” value is recorded as “showed no mass change suggestive of peptide bond cleavage by hDPPIV treatment”.

Source of the values: patent US20260217779.
